The labels stand for the following.
B1: Protein arginine N-methyltransferase 1 (Saccharomyces cerevisiae), P38074 (parent)
chain: MSKTAVKDSATEKTKLSESEQHYFNSYDHYGIHEEMLQDTVRTLSYRNAIIQNKDLFKDKIVLDVGCGTGILSMFAAKHGAKHVIGVDMSSIIEMAKELVELNGFSDKITLLRGKLEDVHLPFPKVDIIISEWMGYFLLYESMMDTVLYARDHYLVEGGLIFPDKCSIHLAGLEDSQYKDEKLNYWQDVYGFDYSPFVPLVLHEPIVDTVERNNVNTTSDKLIEFDLNTVKISDLAFKSNFKLTAKRQDMINGIVTWFDIVFPAPKGKRPVEFSTGPHAPYTHWKQTIFYFPDDLDAETGDTIEGELVCSPNEKNNRDLNIKISYKFESNGIDGNSRSRKNEGSYLMH
partner: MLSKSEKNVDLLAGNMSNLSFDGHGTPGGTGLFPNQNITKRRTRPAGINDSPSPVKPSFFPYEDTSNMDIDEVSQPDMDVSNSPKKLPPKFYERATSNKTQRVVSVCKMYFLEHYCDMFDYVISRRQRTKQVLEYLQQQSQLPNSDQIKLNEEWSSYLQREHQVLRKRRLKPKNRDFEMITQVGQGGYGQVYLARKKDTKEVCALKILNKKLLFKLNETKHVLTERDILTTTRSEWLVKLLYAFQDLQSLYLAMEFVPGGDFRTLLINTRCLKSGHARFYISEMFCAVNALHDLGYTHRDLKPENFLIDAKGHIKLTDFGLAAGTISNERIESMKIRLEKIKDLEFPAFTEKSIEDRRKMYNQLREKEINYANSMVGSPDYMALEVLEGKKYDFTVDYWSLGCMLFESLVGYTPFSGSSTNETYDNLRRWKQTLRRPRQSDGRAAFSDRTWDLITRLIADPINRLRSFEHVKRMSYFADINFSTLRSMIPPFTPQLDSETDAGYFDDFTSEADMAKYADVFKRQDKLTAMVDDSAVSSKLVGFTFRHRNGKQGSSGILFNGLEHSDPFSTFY
B2: Protein arginine N-methyltransferase 1 (Saccharomyces cerevisiae), P38074 (parent)
chain: B1 chain

Variants of B1 are the subject of the first assay. To be noted: with dbf2_yeast DBF2, P22204.
In the case of S9A, the “effect of a mutation on the interaction” value is listed as “disrupting interaction strength”.

Another assay covers variants of B2. To be noted: with pp2a2_yeast PPH22, P23595.
Sequence of pp2a2_yeast PPH22, P23595 (P23595 whole entry): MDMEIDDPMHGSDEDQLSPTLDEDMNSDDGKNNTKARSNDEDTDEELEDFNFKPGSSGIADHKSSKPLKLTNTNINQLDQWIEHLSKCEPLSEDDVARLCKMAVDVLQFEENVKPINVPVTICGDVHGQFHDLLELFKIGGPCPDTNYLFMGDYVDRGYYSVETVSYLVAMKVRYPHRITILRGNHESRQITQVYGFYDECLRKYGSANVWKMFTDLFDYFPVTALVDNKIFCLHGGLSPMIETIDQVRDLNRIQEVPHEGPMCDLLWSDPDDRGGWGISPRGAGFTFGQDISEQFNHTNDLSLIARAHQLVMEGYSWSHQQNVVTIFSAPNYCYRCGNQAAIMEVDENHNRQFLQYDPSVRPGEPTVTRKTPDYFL
Regarding S9A, the “effect of a mutation on the interaction” value is on record as “disrupting interaction strength”.

Source of the values: IntAct's records for PubMed 23706744.
